Results published in US20230357367A1 (GENERATE BIOMEDICINES, published 2023).
Changes are numbered by the printed parent chain. Like-named read-outs stand apart in the source and are kept apart here.

Columns and labels:
[1] = biological target: T1, SARS-CoV-1 Spike on pseudovirus (SARS-CoV-1, UniProt P59594 14-1255); assay: cell-based or functional assay
[2] = biological target: T2, WIV1 Spike on pseudovirus (WIV1 (bat SARS-like coronavirus)); assay: cell-based or functional assay
[3] = biological target: T1, SARS-CoV-1 Spike on pseudovirus; assay: cell-based or functional assay; remark: listed apart in the source
[4] = biological target: T2, WIV1 Spike on pseudovirus; assay: cell-based or functional assay; remark: listed apart in the source
[5] = biological target: T1, SARS-CoV-1 Spike on pseudovirus; assay: cell-based or functional assay; remark: listed apart in the source
[6] = biological target: T2, WIV1 Spike on pseudovirus; assay: cell-based or functional assay; remark: listed apart in the source
[7] = biological target: T3, MERS spike trimer (recombinant, negative control) (MERS, UniProt K9N5Q8 18-1296); assay: SPR, Fab over anti-His-captured trimer, 25 C
T3 sequence: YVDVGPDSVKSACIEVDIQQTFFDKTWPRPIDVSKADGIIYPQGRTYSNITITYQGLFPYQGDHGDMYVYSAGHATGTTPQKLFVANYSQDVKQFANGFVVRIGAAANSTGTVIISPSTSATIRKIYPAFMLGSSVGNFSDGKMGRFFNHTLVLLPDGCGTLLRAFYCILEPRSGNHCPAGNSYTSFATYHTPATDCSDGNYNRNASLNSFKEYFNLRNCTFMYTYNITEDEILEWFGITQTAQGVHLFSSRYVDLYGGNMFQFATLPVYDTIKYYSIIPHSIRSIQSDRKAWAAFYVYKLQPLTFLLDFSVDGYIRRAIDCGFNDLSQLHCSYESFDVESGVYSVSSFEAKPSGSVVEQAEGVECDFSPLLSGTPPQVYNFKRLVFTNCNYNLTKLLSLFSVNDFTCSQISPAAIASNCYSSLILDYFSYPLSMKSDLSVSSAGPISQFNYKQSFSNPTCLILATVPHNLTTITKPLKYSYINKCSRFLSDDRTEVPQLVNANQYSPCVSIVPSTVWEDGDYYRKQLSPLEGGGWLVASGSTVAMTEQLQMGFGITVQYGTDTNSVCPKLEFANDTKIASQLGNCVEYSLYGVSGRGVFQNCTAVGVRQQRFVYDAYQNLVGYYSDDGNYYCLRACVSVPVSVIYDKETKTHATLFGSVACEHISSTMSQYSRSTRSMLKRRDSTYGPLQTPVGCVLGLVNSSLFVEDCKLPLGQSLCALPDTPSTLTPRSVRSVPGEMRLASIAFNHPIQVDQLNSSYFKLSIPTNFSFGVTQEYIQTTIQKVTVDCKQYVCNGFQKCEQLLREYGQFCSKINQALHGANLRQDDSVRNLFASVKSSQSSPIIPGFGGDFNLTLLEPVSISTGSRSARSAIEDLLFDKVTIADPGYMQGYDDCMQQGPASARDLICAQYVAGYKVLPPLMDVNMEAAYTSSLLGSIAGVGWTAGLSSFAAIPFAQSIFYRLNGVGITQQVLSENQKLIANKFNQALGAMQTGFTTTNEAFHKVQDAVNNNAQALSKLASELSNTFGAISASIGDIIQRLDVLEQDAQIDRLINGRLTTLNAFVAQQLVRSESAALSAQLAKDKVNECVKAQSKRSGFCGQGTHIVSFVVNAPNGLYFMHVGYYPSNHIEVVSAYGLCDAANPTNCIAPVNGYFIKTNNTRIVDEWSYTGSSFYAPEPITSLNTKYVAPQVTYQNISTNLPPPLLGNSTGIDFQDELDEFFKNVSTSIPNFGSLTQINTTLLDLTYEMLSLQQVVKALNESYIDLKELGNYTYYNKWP

[8] = biological target: spike of SARS-CoV-2 Eng20 (WT) (SARS-CoV-2, UniProt P0DTC2 14-1273); assay: cell-based or functional assay

B1: Reference Antibody (antibody, V domains shown)
VH: EVQLVESGAEVKKPGESLKISCKGSGYTFTRYWIGWVRQMPGKGLEWMGIIYPGDSDTRYSPSFQGHVTISADKSISTAYLQWNSLKASDTAMYYCARLPQYCSNGVCQRWFDPWGQGTLVTVSS
VL: EIVLTQSPSSVSASVGDRVTITCRASQGISSWLAWYQQKPGKAPKLLIYAASSLQSGVPSRFSGSGSGTDFTLTISSLQPEDFATYYCQQGNSFPYTFGQGTNLEIK
With B1 the “IC50, pseudovirus neutralization” value [1] was 0.244 µg/mL, the “IC50, pseudovirus neutralization” value [2] was 0.473 µg/mL and the “% neutralization at 4.5 µg/ml, pseudovirus” value [3] was 94.3%. For the same binder, the “% neutralization at 4.5 µg/ml, pseudovirus” value [4] was 97.6%, the “IC50, pseudovirus neutralization” value [5] was 0.0352 µg/mL and the “IC50, pseudovirus neutralization” value [6] was 0.0196 µg/mL.

B2: AB-1 Fab (Fab, V domains shown)
VH: B1 VH with T58V, N105K, Q109Y
VL: B1 VL with N92H
B2: no binding (tested: 600 nM highest Fab concentration) [7].

B3: Reference Antibody Fab (Fab, V domains shown)
VH: B1 VH
VL: B1 VL
B3: no binding (tested: 600 nM highest Fab concentration) [7].

B4: bebtelovimab (antibody, V domains shown)
VH: QITLKESGPTLVKPTQTLTLTCTFSGFSLSISGVGVGWLRQPPGKALEWLALIYWDDDKRYSPSLKSRLTISKDTSKNQVVLKMTNIDPVDTATYYCAHHSISTIFDHWGQGTLVTVSS
VL: QSALTQPASVSGSPGQSITISCTATSSDVGDYNYVSWYQQHPGKAPKLMIFEVSDRPSGISNRFSGSKSGNTASLTISGLQAEDEADYYCSSYTTSSAVFGGGTKLTVLG
For B4, the “EC50, live virus neutralization” value [8] was 0.0016 µg/mL.
